Experiment [1] has as its target T1, human PD-1 (amino acids 1-185) on transfected Jurkat cells (human, UniProt Q15116 21-185).
T1 construct: also called hPD-1; Jurkat+hPD-1 cell line
The experiment in a line: flow cytometry on Jurkat cells expressing hPD-1; cells pre-incubated with 10 µM anti-hPD-1 #1-mIgG2b-N297A.
Experimental: (§1) Briefly, Jurkat cells stably expressing hPD-1 (as described in Protocol A above) were washed and re-suspended in FACS buffer containing 1:50 dilution of human FcR Blocking reagent. Cells were incubated at 4° C. for 10 minutes and washed. […] Cells were washed and incubated with test antibodies or antibody-attenuated hIL-2 fusion proteins serially diluted six-fold for an 8-point curve in 100 μL volume for one hour at 4° C. To detect bound test anti-hPD-1 antibodies or anti-hPD-1-attenuated hIL-2 fusion proteins, cells were washed again and incubated with 1:40 dilution of Allophycocyanin-conjugated anti-human IgG Fc monoclonal antibody for 45 minutes on ice. Cells were washed and re-suspended in FACS buffer containing 1:1000 dilution of Sytox Green (Thermo Fisher). […] Flow cytometry was carried out on the BD Canto II, BD Celesta, or BD Fortessa (BD Biosciences) flow cytometers and gMFI was calculated using FlowJo software version 10. EC₅₀ values were calculated from the gMFI of the Allophycocyanin signal across the titrated concentrations using GraphPad Prism 7 software.

Experiment [2] deals with T1, human PD-1 (amino acids 1-185) on …. The experiment in a line: flow cytometry on Jurkat cells expressing hPD-1; cells pre-incubated with 10 µM anti-hPD-1 #2-mIgG2b-N297A.
Experimental: as §1
Experiment [3] concerns the target T2, native human PD-1 on PMA/ionomycin-activated primary human T cells (human, UniProt Q15116 25-288).
T2 construct: whole, on cells; also called native hPD-1
The experiment in a line: flow cytometry, activated human CD3+CD8+ T cells.
Experimental: (§2) The binding of anti-hPD-1 antibodies and anti-hPD-1-attenuated hIL-2 fusion proteins on activated primary T cells expressing hPD-1 was examined by flow cytometry. […] Cells were then stained with 1:20 dilution of Allophycocyanin-conjugated anti-human IgG Fc to detect bound antibody. To delineate immune subsets, a cocktail of surface markers included anti-human CD3, anti-CD4, and anti-CD8 antibodies was used. […] Cells were analyzed on the BD Fortessa (BD Biosciences), FlowJo software version 10 was used to gate on T cell subsets then calculate gMFI of the allophycocyanin signal. EC₅₀ values were calculated from the gMFI across the titrated concentrations using GraphPad Prism 7 software. To test the binding of anti-hPD-1-hIL-2 fusion proteins, cryopreserved CD3+ T cells were activated with PMA/ionomycin and flow cytometry binding was performed identically as described above.

Experiment [4] addresses T1, human PD-1 (amino acids 1-185) on …. The experiment in a line: flow cytometry on Jurkat cells expressing hPD-1; no competitor. Background: Flow cytometry measures light scatter and fluorescence of single cells or particles in a stream.
Experimental: as §1
Experiment [5] has the same target. The experiment in a line: flow cytometry, Jurkat+hPD-1 cells; competitor 10 µM anti-hPD-1 #1-mIgG2b-N297A.
Experimental: as §1
The target of experiment [6] is T2, native human PD-1 on …. The experiment in a line: flow cytometry, activated human CD3+CD4+ T cells.
Experimental: as §2
The target of experiment [7] is human PD-1 on Jurkat Effector cells of the PD-1/PD-L1 blockade bioassay (Promega, Cat #J1255) (human, UniProt Q15116 25-288). The experiment in a line: cell-based or functional assay.
Experiment [8] has as its target T3, human PD-1 on Jurkat cells (Jurkat+hPD-1) (human, UniProt Q15116 21-185).
T3 construct: extracellular domain and a portion of the transmembrane domain, stably expressed on Jurkat cells
The experiment in a line: flow cytometry on Jurkat cells expressing hPD-1.
Experimental: EC₅₀ values were calculated from the geometric mean fluorescent intensity (gMFI) across the titrated concentrations using GraphPad Prism 7 software.

Experiment [9] has as its target T4, native cynomolgus PD-1 on PMA/ionomycin-activated cynomolgus T cells (cynomolgus, UniProt B0LAJ3 25-288). The experiment in a line: flow cytometry, activated cynomolgus CD3+CD8+ T cells.
Experimental: (§3) Human PD-1 antibody-attenuated hIL-2 fusion proteins were also tested for binding to activated cynomolgus T cells using flow cytometry. […] 24 hours later, cells were stained using the same procedure as binding to human PD-1 primary cells described above except cynomolgus cross-reactive markers were used. FlowJo software version 10 was used to gate on live, CD3⁺CD4⁺ or CD3⁺CD8⁺ T cells and then to calculate gMFI of the Allophycocyanin signal. EC₅₀ values were calculated from the gMFI across the titrated concentrations of anti-hPD-1 antibodies or hPD-1 antibody-attenuated hIL-2 fusion proteins using GraphPad Prism 7 software.
Experiment [10] addresses T1, human PD-1 (amino acids 1-185) on …. The experiment in a line: flow cytometry on Jurkat cells expressing hPD-1; no competitor. This is another data set of the same source.
Experimental: as §1
The target of experiment [11] is T4, native cynomolgus PD-1 on …. The experiment in a line: flow cytometry, activated cynomolgus CD3+CD4+ T cells.
Experimental: as §3
Experiment [12] addresses T1, human PD-1 (amino acids 1-185) on …. The experiment in a line: flow cytometry on Jurkat cells expressing hPD-1; cells pre-incubated with 10 µM anti-hPD-1 #1-mIgG2b-N297A. This is another data set of the same source.
Experimental: as §1
Experiment [13] shares this target. The experiment in a line: flow cytometry on Jurkat cells expressing hPD-1; cells pre-incubated with 10 µM anti-hPD-1 #2-mIgG2b-N297A. This is another data set of the same source.
Experiment [14] deals with T5, recombinant His-tagged human PD-1 (Acro Biosystems) (human, UniProt Q15116 25-167).
T5 construct: also called recombinant human PD-1; human PD-1 (Acro Biosystems, Cat #PD-1-H5221-100 ug)
The experiment in a line: SPR, steady state, separate experiment; separate experiment; steady state KD. In general terms: In SPR one partner is held on a chip, and binding of the other changes the refractive index at the surface.

Experiment [15] deals with T1, human PD-1 (amino acids 1-185) on …. The experiment in a line: flow cytometry on Jurkat cells expressing hPD-1; no competitor. This is another data set of the same source.
Experimental: as §1
The target is the same in experiment [16]. The experiment in a line: flow cytometry on Jurkat cells expressing hPD-1; cells pre-incubated with 10 µM anti-hPD-1 #1-mIgG2b-N297A. The source holds these as a separate data set.
Experimental: as §1
For experiment [17] the target is unchanged. The experiment in a line: flow cytometry, Jurkat+hPD-1 cells.
For experiment [18] the target is unchanged. The experiment in a line: flow cytometry on Jurkat cells expressing hPD-1; cells pre-incubated with 10 µM anti-hPD-1 #2-mIgG2b-N297A. This is another data set of the same source.
Experimental: as §1

T1 sequence (Q15116 21-185 limits assumed): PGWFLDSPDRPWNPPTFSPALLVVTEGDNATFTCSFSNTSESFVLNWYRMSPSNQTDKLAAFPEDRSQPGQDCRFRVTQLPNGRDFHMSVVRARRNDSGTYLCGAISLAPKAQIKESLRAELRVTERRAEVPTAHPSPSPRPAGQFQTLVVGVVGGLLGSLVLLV
T3 sequence (Q15116 21-185 limits assumed): as above
human PD-1 on Jurkat Effector cells of the PD-1/PD-L1 blockade bioassay (Promega, Cat #J1255), sequence (Q15116 25-288): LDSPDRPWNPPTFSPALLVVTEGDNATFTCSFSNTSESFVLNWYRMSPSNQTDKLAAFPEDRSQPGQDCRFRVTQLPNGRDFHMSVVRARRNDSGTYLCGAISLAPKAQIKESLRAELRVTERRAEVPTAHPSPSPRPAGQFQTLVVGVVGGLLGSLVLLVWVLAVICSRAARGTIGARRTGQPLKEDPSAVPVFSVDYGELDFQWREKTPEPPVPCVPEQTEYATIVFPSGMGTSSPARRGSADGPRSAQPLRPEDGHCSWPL
T2 sequence (Q15116 25-288): as above
T4 sequence (B0LAJ3 entry or part of it limits assumed): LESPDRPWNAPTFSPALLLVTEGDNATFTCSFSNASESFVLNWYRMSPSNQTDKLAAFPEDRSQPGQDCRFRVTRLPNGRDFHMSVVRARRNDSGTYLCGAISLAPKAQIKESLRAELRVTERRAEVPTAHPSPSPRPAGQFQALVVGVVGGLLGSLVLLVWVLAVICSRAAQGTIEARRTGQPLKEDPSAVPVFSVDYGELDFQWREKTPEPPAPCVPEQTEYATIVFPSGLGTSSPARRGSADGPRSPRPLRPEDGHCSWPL
T5 sequence (Q15116 25-167 limits assumed): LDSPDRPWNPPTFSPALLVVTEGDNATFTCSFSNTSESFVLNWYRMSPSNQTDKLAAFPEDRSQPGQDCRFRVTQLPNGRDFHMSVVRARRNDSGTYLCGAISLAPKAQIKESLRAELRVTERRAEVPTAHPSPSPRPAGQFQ

B1: A2-hIgG4 (antibody, V domains shown)
VH: DVQLVESGGGLVQPGGSLRLSCAASGFTFDISAMSWVRQAPGKGLEWVSTISGSAYSTYYADSVKGRFTISRDNSKSTLYLQMNSLRAEDTAVYYCAREIFSDYWGLGTLVTVSS
VL: QSVLTQPPSASGTPGQRVTISCSGSTSNIGRESVYWYQQLPGTAPKLLIYSNVQRPSGAPNRFSGSKSGTSASLAISGLQSEDEADYYCGTWDDSLNGWVFGGGTKLTVLG
The term EC50 (read off the curve) denotes the concentration that produces a half-maximal response. Read a low EC50 (read off the curve) as greater potency. One may read the EC50 as the concentration at which the effect is half-maximal. A low value points to greater potency. Consider B1, for which the concentration for a half-maximal effect (EC50 (read off the curve)) in experiment [1] is about 10 nM; in [2], about 20 nM; in [4] it was about 6 nM. In addition, the EC50 in experiment [3] turned out to be 22 nM; in [6], 30 nM. Also, the “fold shift of the dose-titration curve” value in [5] is under 10 fold. For the same molecule, the “luminescence (RLU), PD-1/PD-L1 blockade bioassay” value (shortened to “luminescence (RLU)”) in experiment [7] is about 3000 RLU.

B2: G12-hIgG4 (antibody, V domains shown)
VH: DSLVESGGGLVQPGGSLRLSCAASGFTFDISAMSWVRQAPGKGLEWVSTISGSAYSTYYADSVKGRFTISRDNSKSTLYLQMNSLRAEDTAVYYCAREIFSDYWGLGTLVTVSS
VL: QSVLTQPPSASGTPGQRVTISCSGSTSNIGRESVYWYQQLPGTAPKLLIYLNSQRPSGVPDRFSGSKSGTSASLAISGLQSEDVADYYCGTWDDSLNGWVFGGGTKLTVLG
B2: the EC50 in experiment [8] was 5.36 nM.

B3: A2-hIgG4 (antibody, V domains shown)
VH: DVQLVESGGGLVQPGGSLRLSCAASGFTFDISAMSWVRQAPGKGLEWVSTISGSAYSTYYADSVKGRFTISRDNSKSTLYLQMNSLRAEDTAVYYCAREIFSDYWGLGTLVTVSS
VL: QSVLTQPPSASGTPGQRVTISCSGSTSNIGRESVYWYQQLPGTAPKLLIYSNVQRPSGAPNRFSGSKSGTSASLAISGLQSEDEADYYCGTWDDSLNGWVFGGGTKLTVLG
In experiment [8], B3 displayed an EC50 of 5.97 nM.

B4: D12-hIgG4 (antibody, V domains shown)
VH: DVQLVESGGGLVQPGGSLRLSCAASGFTFDISAMSWVRQAPGKGLEWVSTISGSAYSTYYADSVKGRFTISRDNSKSTLYLQMNSLRAEDTAVYYCAREIFSDYWGLGTLVTVSS
VL: QSVLTQPPSASGTPGQRVTISCSGNTSNIGRESVYWYQQLPGTAPKLLIYSNVQRPSGVPDRFSGSKSGTSASLAISGLQSEDEADYYCGTWDDSLNGWVFGGGTKLTVLG
With B4, the EC50 in experiment [8] worked out at 9.67 nM.

B5: 2H7-hIgG4 (antibody)
heavy: not shown
light: EIVLTQSPGTLSLSPGERATLSCRASQSIGKSFLAWYQQKPGQAPRLLIYDASTRAADIPARFSGSGSGTDFTLTISSLEPEDFAVYYCQQYYDWPPLSFGGGTKVEIKRTVAAPSVFIFPPSDEQLKSGTASVVCLLNNFYPREAKVQWKVDNALQSGNSQESVTEQDSKDSTYSLSSTLTLSKADYEKHKVYACEVTHQGLSSPVTKSFNRGEC
As for B5, the half-maximal effective concentration (EC50) in experiment [9] was 0.08 nM; in [11], 0.09 nM; in experiment [3] it was 0.1 to 0.8 nM; in [6], 0.1 to 0.7 nM. Besides, the “EC50 (read off the curve)” value in experiment [10] was about 0.3 nM; in [12], about 0.5 nM; in [13], about 2 nM. Moreover, in experiment [5], the “fold shift of the dose-titration curve” value was under 10 fold. Moreover, the “luminescence (RLU)” value in experiment [7] was about 3000 RLU.

B6: 2H7-hIgG4 (antibody)
heavy: not shown
light: EIVLTQSPGTLSLSPGERATLSCRASQSIGKSFLAWYQQKPGQAPRLLIYDASTRAADIPARFSGSGSGTDFTLTISSLEPEDFAVYYCQQYYDWPPLSFGGGTKVEIKRTVAAPSVFIFPPSDEQLKSGTASVVCLLNNFYPREAKVQWKVDNALQSGNSQESVTEQDSKDSTYSLSSTLTLSKADYEKHKVYACEVTHQGLSSPVTKSFNRGEC
For the molecule B6, in experiment [8], the midpoint of the response, the EC50, lay at 0.277 nM.

B7: OMC.2.C6-hIgG4 (antibody, V domains shown)
VH: EVQLLESGGGLVQPGGSLRLSCTASGFTFSSYEMQWVRQAPGKGLEWVLGITSSSSHIFYADSVKGRFTVSRDNSKNTLYLQMNSLRAEDTAVYYCTKDLNSYYGLDVWGQGTTVTVSS
VL: QSVMTQPPSASGTPGQRVTISCSGSTSNLGNNYVSWYQHLPGTAPKLLIYGNDQRPSGVPDRFSGSKSGTSASLAISGLQSDDEADYYCSSWDASLNVWVFGGGTKLTVLG
For B7, the EC50 in experiment [8] amounted to 11.5 nM.

B8: OMC.1.B6-hIgG4 (antibody, V domains shown)
VH: EVQLLESGGGLVQPGGSLRLSCAASGFTFSSNYMSWVRQAPGKGLEWVSAISSSGGTIFYADSVKGRFTISRDNSKNTLYLQMNSLRAEDTAVYYCAKHKWNAVYYDGMDVWGQGTTVTVSS
VL: QSVLTQPPSASGTPGQRVTISCSGSNSNIGRNLVNWYQQLPGTAPKLLIYTIDQRPSGVPDRFSGSKSGTSASLVISGLQSEDEADYYCAAWDGSLNAWVFGGGTKLTVLG
In experiment [8], B8 showed an EC50 of 7.42 nM.

B9: OMC.1.D6-hIgG4 (antibody, V domains shown)
VH: EVQLLESGGGLVQPGGSLRLSCAASGFTFSDYYMSWVRQAPGKGLEWVSAISSSGGTIFYADSVKGRFIISRDNSKNTLYLQMNSLRAEDTAVYYCAKHKWNDVYYDAMDVWGQGTTVTVSS
VL: QSVLTQPPSASGTPGQRVTISCSGSNSNIGRNLVNWYQQLPGTAPKLLIYTVDQRPSGVPDRFSGSKSGTSASLAISGLASEDEADYYCAAWDSSLNSWVFGGGTKLTVLG
The molecule B9 came in with a half-maximal effective concentration (EC50) in [8] of 16 nM. Compared with the last molecule, the EC50 is about 2.2-fold higher.

B10: H7-632-hIgG1-LAGA (antibody, V domains shown)
VH: EVQLLESGGGLVQPGGSLRLSCAASGFTFKSYAMHWVRQAPGKGLEWVSAIVYSGGSTYYADSVKGRFTISRDNSKNTLYLQMNSLRAEDTAVYYCAKYDRASYFYDAMDVWGQGTTVTVSS
VL: EIVLTQSPGTLSLSPGERATLSCRASQSISSSFLAWYQQKPGQAPRLLIYDASDRATGIPDRFSGSGSGTDFTLTISRLEPEDFAVYYCQQYYDWPPLSFGGGTKVEIKR
As a reminder, the Kd is the constant that tells how readily two partners part at equilibrium. For B10, the Kd in [14] is 1.23 nM.

B11: H7-632-hIgG1-LAGA (antibody, V domains shown)
VH: EVQLLESGGGLVQPGGSLRLSCAASGFTFKSYAMHWVRQAPGKGLEWVSAIVYSGGSTYYADSVKGRFTISRDNSKNTLYLQMNSLRAEDTAVYYCAKYDRASYFYDAMDVWGQGTTVTVSS
VL: EIVLTQSPGTLSLSPGERATLSCRASQSISSSFLAWYQQKPGQAPRLLIYDASDRATGIPDRFSGSGSGTDFTLTISRLEPEDFAVYYCQQYYDWPPLSFGGGTKVEIKR
Consider B11, for which the response in [8] was half-maximal at 0.115 nM (EC50).

B12: C51E6-5-hIgG4 (antibody, V domains shown)
VH: QVQLVQSGSELKKPGASVKVSCKASGYSLYGTSMHWVRQAPGQGLEWMGYISPFTGRATYAQGFTGRFVFSLDTSVSTAYLQISSLKAEDTAVYYCARDYDYRYYYAMDYWGQGTTVTVSS
VL: EIVLTQSPDFQSVTPKEKVTITCTASESVPPQFLHWYQQKPDQSPKLLIYASRERASGVPSRFSGSGSGTDFTLTINSLEAEDAATYYCHQFHRSPLTFGGGTKLEIKR
For the molecule B12, the figures for the 50% effective concentration (EC50 (read off the curve)) in experiment [15], in experiment [16] and in experiment [18] were about 2 nM, about 9 nM and about 8 nM, respectively. The concentration for a half-maximal effect (EC50) in experiment [17] is 2 to 4 nM; in [3], 16 nM; in experiment [6], 12 nM. Further, in [5], the “fold shift of the dose-titration curve” value was under 10 fold. Besides, the “luminescence (RLU)” value in experiment [7] is about 3000 RLU.

B13: C51E6-5-hIgG4 (antibody, V domains shown)
VH: QVQLVQSGSELKKPGASVKVSCKASGYSLYGTSMHWVRQAPGQGLEWMGYISPFTGRATYAQGFTGRFVFSLDTSVSTAYLQISSLKAEDTAVYYCARDYDYRYYYAMDYWGQGTTVTVSS
VL: EIVLTQSPDFQSVTPKEKVTITCTASESVPPQFLHWYQQKPDQSPKLLIYASRERASGVPSRFSGSGSGTDFTLTINSLEAEDAATYYCHQFHRSPLTFGGGTKLEIKR
In [8], B13 had an EC50 of 2.05 nM.

Source of the values: patent US20240076343A1 (CEPHALON, published 2024).
